In publication PMC12293770, “Mechanistic Insights into the Bornyl Diphosphate Synthase from Lavandula angustifolia” (Current Issues in Molecular Biology, 2025):

Experiments:
Assay in all cases: GC-MS of hexane phase, Hanes-Woolf plot
Type in all cases: biochemical, Lavandula angustifolia
Conditions in all cases: 25 mM Tris-HCl pH 7.5, 10 mM MgCl2, 1 mM MnCl2, 30 °C, 2 h
[1] = substrate: CC(C)=CCC/C(C)=C/COP(=O)(O)OP(=O)(O)O
Description: GC-MS of hexane phase, Hanes-Woolf plot on ∆59–74

[2] = substrate: CC(C)=CCC/C(C)=C/COP(=O)(O)OP(=O)(O)O; remark: listed apart in the source
Description: GC-MS of hexane phase, Hanes-Woolf plot on ∆1–58

[3] = substrate: CC(C)=CCC/C(C)=C/COP(=O)(O)OP(=O)(O)O; remark: listed apart in the source
Description: GC-MS of hexane phase, Hanes-Woolf plot on ∆1–74

[4] = substrate: CC(C)=CCC/C(C)=C/COP(=O)(O)OP(=O)(O)O; remark: listed apart in the source
Description: GC-MS of hexane phase, Hanes-Woolf plot on ∆578–602

[5] = substrate: CC(C)=CCC/C(C)=C/COP(=O)(O)OP(=O)(O)O; remark: listed apart in the source
Description: GC-MS of hexane phase, Hanes-Woolf plot on LaBPPS (WT)

B1: ∆59–74 (Lavandula angustifolia subsp. angustifolia; DEL59-74) (protein)
chain: MTAARSFMAINSNMTTDHLHKFGKKNLEFGQGYSCNNASPMRLRPCCSLKLSTNAESQFDRIQSLNSVYTEEKYSTRACDLIQQVKKLLEESDWFRQLQLIDDLQRLGLSYRFDDEINLILNTIYFEKKFCEKEMDLYSTSLAFRLLRQHGLKVSQEVFDCFKNEEGDFEARLGDETNGILEMCEASFLATEGEETLELARLFTTNILQKKLDDERNELLIMDDYLRTLIRHSLDLPLYWRVQRPSARWFIEAYATRSDMNPIMLELAKLDFNIVQATHQEELKQVSRWWKESRLAEKLPFARDRVVENYLWNRGMLFPPQYGYPRIMNAKLFVLITVLDDIYDVYGTLEETQLFTNLITRWDVEAIGQLPEYMRICYMAIDNNINELAYEVLKQHGLLIIQDLRKFWADLCVAYGKEAEWYYTGYKPTLEEYLEVAWVSISAHLILGYMFFLTSNPIEKEASQSLSNYHNIIRNSAMVLRLADDLGTSPYEMQRGDVPKAVECYMNENGASTEEAREYVKHLLREVWKETNGERFKESPFTPSFMRICADLGRMAQFMYQHGDGHGIRNLQMEDRIQSLIFEPIV
notes: internal deletion of residues 59-74; E. coli, Talon resin, thrombin-cleaved
Km [1]: 38.49 ± 2.58 µM | kcat [1]: 0.0562 ± 0.007 s⁻¹

B2: ∆1–58 (Lavandula angustifolia subsp. angustifolia) (protein)
chain: LDSTRRSGMYKPTLWDFDRIQSLNSVYTEEKYSTRACDLIQQVKKLLEESDWFRQLQLIDDLQRLGLSYRFDDEINLILNTIYFEKKFCEKEMDLYSTSLAFRLLRQHGLKVSQEVFDCFKNEEGDFEARLGDETNGILEMCEASFLATEGEETLELARLFTTNILQKKLDDERNELLIMDDYLRTLIRHSLDLPLYWRVQRPSARWFIEAYATRSDMNPIMLELAKLDFNIVQATHQEELKQVSRWWKESRLAEKLPFARDRVVENYLWNRGMLFPPQYGYPRIMNAKLFVLITVLDDIYDVYGTLEETQLFTNLITRWDVEAIGQLPEYMRICYMAIDNNINELAYEVLKQHGLLIIQDLRKFWADLCVAYGKEAEWYYTGYKPTLEEYLEVAWVSISAHLILGYMFFLTSNPIEKEASQSLSNYHNIIRNSAMVLRLADDLGTSPYEMQRGDVPKAVECYMNENGASTEEAREYVKHLLREVWKETNGERFKESPFTPSFMRICADLGRMAQFMYQHGDGHGIRNLQMEDRIQSLIFEPIV
notes: N-terminal truncation, residues 1-58 deleted; E. coli, Talon resin, thrombin-cleaved
Km [2]: 28.12 ± 1.75 µM | kcat [2]: 0.113 ± 0.00583 s⁻¹

B3: ∆1–74 (Lavandula angustifolia subsp. angustifolia) (protein)
chain: FDRIQSLNSVYTEEKYSTRACDLIQQVKKLLEESDWFRQLQLIDDLQRLGLSYRFDDEINLILNTIYFEKKFCEKEMDLYSTSLAFRLLRQHGLKVSQEVFDCFKNEEGDFEARLGDETNGILEMCEASFLATEGEETLELARLFTTNILQKKLDDERNELLIMDDYLRTLIRHSLDLPLYWRVQRPSARWFIEAYATRSDMNPIMLELAKLDFNIVQATHQEELKQVSRWWKESRLAEKLPFARDRVVENYLWNRGMLFPPQYGYPRIMNAKLFVLITVLDDIYDVYGTLEETQLFTNLITRWDVEAIGQLPEYMRICYMAIDNNINELAYEVLKQHGLLIIQDLRKFWADLCVAYGKEAEWYYTGYKPTLEEYLEVAWVSISAHLILGYMFFLTSNPIEKEASQSLSNYHNIIRNSAMVLRLADDLGTSPYEMQRGDVPKAVECYMNENGASTEEAREYVKHLLREVWKETNGERFKESPFTPSFMRICADLGRMAQFMYQHGDGHGIRNLQMEDRIQSLIFEPIV
notes: N-terminal truncation, residues 1-74 deleted; E. coli, Talon resin, thrombin-cleaved
Km [3]: 41.72 ± 2.15 µM | kcat [3]: 0.0532 ± 0.002 s⁻¹

B4: ∆578–602 (Lavandula angustifolia subsp. angustifolia) (protein)
chain: MTAARSFMAINSNMTTDHLHKFGKKNLEFGQGYSCNNASPMRLRPCCSLKLSTNAESQLDSTRRSGMYKPTLWDFDRIQSLNSVYTEEKYSTRACDLIQQVKKLLEESDWFRQLQLIDDLQRLGLSYRFDDEINLILNTIYFEKKFCEKEMDLYSTSLAFRLLRQHGLKVSQEVFDCFKNEEGDFEARLGDETNGILEMCEASFLATEGEETLELARLFTTNILQKKLDDERNELLIMDDYLRTLIRHSLDLPLYWRVQRPSARWFIEAYATRSDMNPIMLELAKLDFNIVQATHQEELKQVSRWWKESRLAEKLPFARDRVVENYLWNRGMLFPPQYGYPRIMNAKLFVLITVLDDIYDVYGTLEETQLFTNLITRWDVEAIGQLPEYMRICYMAIDNNINELAYEVLKQHGLLIIQDLRKFWADLCVAYGKEAEWYYTGYKPTLEEYLEVAWVSISAHLILGYMFFLTSNPIEKEASQSLSNYHNIIRNSAMVLRLADDLGTSPYEMQRGDVPKAVECYMNENGASTEEAREYVKHLLREVWKETNGERFKESPFTPSFMRICADLGRMAQFMYQ
notes: C-terminal truncation, residues 578-602 deleted; E. coli, Talon resin, thrombin-cleaved
Km [4]: 14.83 ± 1.09 µM | kcat [4]: 0.195 ± 0.0143 s⁻¹

B5: LaBPPS (WT) (Lavandula angustifolia subsp. angustifolia) (protein)
chain: MTAARSFMAINSNMTTDHLHKFGKKNLEFGQGYSCNNASPMRLRPCCSLKLSTNAESQLDSTRRSGMYKPTLWDFDRIQSLNSVYTEEKYSTRACDLIQQVKKLLEESDWFRQLQLIDDLQRLGLSYRFDDEINLILNTIYFEKKFCEKEMDLYSTSLAFRLLRQHGLKVSQEVFDCFKNEEGDFEARLGDETNGILEMCEASFLATEGEETLELARLFTTNILQKKLDDERNELLIMDDYLRTLIRHSLDLPLYWRVQRPSARWFIEAYATRSDMNPIMLELAKLDFNIVQATHQEELKQVSRWWKESRLAEKLPFARDRVVENYLWNRGMLFPPQYGYPRIMNAKLFVLITVLDDIYDVYGTLEETQLFTNLITRWDVEAIGQLPEYMRICYMAIDNNINELAYEVLKQHGLLIIQDLRKFWADLCVAYGKEAEWYYTGYKPTLEEYLEVAWVSISAHLILGYMFFLTSNPIEKEASQSLSNYHNIIRNSAMVLRLADDLGTSPYEMQRGDVPKAVECYMNENGASTEEAREYVKHLLREVWKETNGERFKESPFTPSFMRICADLGRMAQFMYQHGDGHGIRNLQMEDRIQSLIFEPIV
notes: full-length, codon-optimised gene, pHXGWA, E. coli Rosetta (DE3) pLysS, Talon resin, thrombin-cleaved; monomer by DLS
Km [5]: 29.37 ± 1.21 µM | kcat [5]: 0.104 ± 0.00783 s⁻¹
